Measurements reported in PMC3950718, “The RNA helicase RHAU (DHX36) suppresses expression of the transcription factor PITX1”.

Experiments:
[1] = target: T1, RHAU (full length) (UniProt Q9H2U1 1-1008); experiment: EMSA; 150 nM RNA, 0-750 nM protein; RNA in 50 mM Tris pH 7.6, 100 mM KCl; EMSA as in ref 12/36 (150 nM RNA, 0-750 nM protein); pull-down binding buffer 50 mM Tris-acetate pH 7.8, 100 mM KCl, 10 mM NaCl, 3 mM MgCl2, 70 mM glycine, 10% glycerol, room temperature; details: protein: recombinant, label: 5' biotin
T1 sequence: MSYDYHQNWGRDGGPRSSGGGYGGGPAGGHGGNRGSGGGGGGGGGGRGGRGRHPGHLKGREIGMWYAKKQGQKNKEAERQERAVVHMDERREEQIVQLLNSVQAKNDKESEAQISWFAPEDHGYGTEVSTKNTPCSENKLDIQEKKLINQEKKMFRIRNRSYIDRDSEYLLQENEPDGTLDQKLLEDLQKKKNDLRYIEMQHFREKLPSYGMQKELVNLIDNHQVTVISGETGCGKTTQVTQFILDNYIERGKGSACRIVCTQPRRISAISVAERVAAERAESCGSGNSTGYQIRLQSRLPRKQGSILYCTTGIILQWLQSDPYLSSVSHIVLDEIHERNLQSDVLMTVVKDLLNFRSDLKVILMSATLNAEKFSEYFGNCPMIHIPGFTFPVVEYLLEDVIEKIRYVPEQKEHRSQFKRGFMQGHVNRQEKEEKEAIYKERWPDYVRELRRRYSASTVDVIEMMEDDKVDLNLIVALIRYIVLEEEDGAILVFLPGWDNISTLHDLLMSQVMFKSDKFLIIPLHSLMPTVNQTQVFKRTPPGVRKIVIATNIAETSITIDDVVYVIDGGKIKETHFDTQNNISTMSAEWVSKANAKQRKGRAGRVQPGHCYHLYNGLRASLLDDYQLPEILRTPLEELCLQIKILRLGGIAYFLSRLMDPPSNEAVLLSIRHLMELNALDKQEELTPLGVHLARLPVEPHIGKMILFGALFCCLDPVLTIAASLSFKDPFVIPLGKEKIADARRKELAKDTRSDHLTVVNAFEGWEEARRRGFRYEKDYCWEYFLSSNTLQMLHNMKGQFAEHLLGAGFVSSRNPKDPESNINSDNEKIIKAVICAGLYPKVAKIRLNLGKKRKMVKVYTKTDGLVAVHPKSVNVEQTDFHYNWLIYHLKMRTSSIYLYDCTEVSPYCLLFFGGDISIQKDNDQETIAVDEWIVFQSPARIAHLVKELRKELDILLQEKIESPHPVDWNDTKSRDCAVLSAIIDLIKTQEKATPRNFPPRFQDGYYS

[2] = target: T2, RHAU53-105 (UniProt Q9H2U1 53-105); experiment: EMSA; 150 nM RNA, 0-750 nM protein; qualitatively lower affinity than full length; RNA in 50 mM Tris pH 7.6, 100 mM KCl; EMSA as in ref 12/36 (150 nM RNA, 0-750 nM protein); pull-down binding buffer 50 mM Tris-acetate pH 7.8, 100 mM KCl, 10 mM NaCl, 3 mM MgCl2, 70 mM glycine, 10% glycerol, room temperature; details: protein: recombinant; label: 5' biotin; G-quadruplex
T2 sequence: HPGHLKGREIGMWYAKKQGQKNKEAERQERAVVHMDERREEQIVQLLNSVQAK

[3] = target: T3, 6xHis-RHAU53-105 (UniProt Q9H2U1 53-105); experiment: EMSA; RNA in 50 mM Tris pH 7.6, 100 mM KCl; EMSA as in ref 12/36 (150 nM RNA, 0-750 nM protein); pull-down binding buffer 50 mM Tris-acetate pH 7.8, 100 mM KCl, 10 mM NaCl, 3 mM MgCl2, 70 mM glycine, 10% glycerol, room temperature; details: protein: recombinant; tags: 6xHis; label: 5' biotin; no quadruplex (no NMM staining)
T3 sequence: T2 sequence

[4] = target: T2, RHAU53-105; experiment: EMSA; 150 nM RNA, 0-750 nM protein; RNA in 50 mM Tris pH 7.6, 100 mM KCl; EMSA as in ref 12/36 (150 nM RNA, 0-750 nM protein); pull-down binding buffer 50 mM Tris-acetate pH 7.8, 100 mM KCl, 10 mM NaCl, 3 mM MgCl2, 70 mM glycine, 10% glycerol, room temperature; details: protein: recombinant; label: 5' biotin; no quadruplex (no NMM staining)
[5] = target: T3, 6xHis-RHAU53-105; experiment: EMSA; 150 nM RNA; affinity similar to untagged; RNA in 50 mM Tris pH 7.6, 100 mM KCl; EMSA as in ref 12/36 (150 nM RNA, 0-750 nM protein); pull-down binding buffer 50 mM Tris-acetate pH 7.8, 100 mM KCl, 10 mM NaCl, 3 mM MgCl2, 70 mM glycine, 10% glycerol, room temperature; details: protein: recombinant; tags: 6xHis; label: 5' biotin; G-quadruplex

AGCGGGCAGUGCGGGCCUGGCGGGAGGUGGGGGAGG (structured_RNA) [PITX1 Q3]
binding result ([1]; G-quadruplex): binds | binding result [2]: binds

GAGCGCGGAAGCGCGCGCGCGCGCGCGCGG (ssRNA) [PITX1 Q1Mut]
binding result [3]: no binding | binding result [4]: no binding | binding result ([1]; no quadruplex (no NMM staining)): no binding

GUUGGGGCGGGCGUUGGGUUUGGGGGGACG (structured_RNA) [PITX1 Q2]
binding result ([1]; G-quadruplex): binds | binding result [2]: binds

GAGCGGGGAAGGGCGCGGGCGCGGGCGCGG (structured_RNA) [PITX1 Q1]
binding result ([1]; G-quadruplex): binds | binding result [5]: binds | binding result [2]: binds
